Biological target: wt1_human WT1 (UniProt P19544)
Sequence (P19544 whole entry): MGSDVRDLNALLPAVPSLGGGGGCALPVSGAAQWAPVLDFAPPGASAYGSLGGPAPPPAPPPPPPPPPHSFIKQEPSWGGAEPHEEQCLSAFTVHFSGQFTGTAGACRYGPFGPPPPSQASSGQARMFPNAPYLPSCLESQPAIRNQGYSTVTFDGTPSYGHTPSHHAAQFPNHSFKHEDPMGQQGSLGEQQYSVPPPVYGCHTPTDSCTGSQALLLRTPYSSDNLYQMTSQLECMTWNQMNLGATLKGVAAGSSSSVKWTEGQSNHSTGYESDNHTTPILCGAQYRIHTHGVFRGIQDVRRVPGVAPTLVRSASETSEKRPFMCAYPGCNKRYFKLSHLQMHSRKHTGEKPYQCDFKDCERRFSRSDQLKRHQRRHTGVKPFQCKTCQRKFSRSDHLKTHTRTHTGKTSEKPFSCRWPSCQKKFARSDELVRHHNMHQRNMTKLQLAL

| Substance | effect of a mutation on the interaction |
| --- | --- |
| Methylcytosine dioxygenase TET2 (Homo sapiens), Q6N021 L1340R | decreasing interaction strength |
| Methylcytosine dioxygenase TET2 (Homo sapiens), Q6N021 G1861R | disrupting interaction strength |
| Methylcytosine dioxygenase TET2 (Homo sapiens), Q6N021 G1256D | disrupting interaction strength |
| Methylcytosine dioxygenase TET2 (Homo sapiens), Q6N021 P1617H | disrupting interaction strength |
| Methylcytosine dioxygenase TET2 (Homo sapiens), Q6N021 R1302G | disrupting interaction strength |
| Methylcytosine dioxygenase TET2 (Homo sapiens), Q6N021 D1314G | with no effect |
| Methylcytosine dioxygenase TET2 (Homo sapiens), Q6N021 T1884A | disrupting interaction strength |
| Methylcytosine dioxygenase TET2 (Homo sapiens), Q6N021 F1368L | decreasing interaction strength |
| Methylcytosine dioxygenase TET2 (Homo sapiens), Q6N021 A1505T | disrupting interaction strength |
| Methylcytosine dioxygenase TET2 (Homo sapiens), Q6N021 D1242V | disrupting interaction strength |

Reference: IntAct's records for PubMed 25601757
